These results are taken from patent US20050164936A1.

Assay in all cases: cell-based or functional assay
In test [1] the target is CC chemokine receptor CCR5 (human) (UniProt P51681).
Test [2] deals with T1, CC chemokine receptor CCR3 (UniProt P51677).
T1 sequence (looked up): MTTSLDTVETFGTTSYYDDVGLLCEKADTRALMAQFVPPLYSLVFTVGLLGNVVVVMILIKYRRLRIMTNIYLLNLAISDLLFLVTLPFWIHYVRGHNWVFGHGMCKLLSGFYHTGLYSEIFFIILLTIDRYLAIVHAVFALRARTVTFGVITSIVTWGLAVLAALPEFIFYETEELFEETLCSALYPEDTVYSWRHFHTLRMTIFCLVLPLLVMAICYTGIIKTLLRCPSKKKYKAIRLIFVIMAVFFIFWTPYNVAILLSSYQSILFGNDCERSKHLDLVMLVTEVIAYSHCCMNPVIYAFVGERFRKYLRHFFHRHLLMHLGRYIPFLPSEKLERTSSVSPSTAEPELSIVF

The target of test [3] is T2, CC chemokine receptor CCR1 (UniProt P32246).
T2 sequence (looked up): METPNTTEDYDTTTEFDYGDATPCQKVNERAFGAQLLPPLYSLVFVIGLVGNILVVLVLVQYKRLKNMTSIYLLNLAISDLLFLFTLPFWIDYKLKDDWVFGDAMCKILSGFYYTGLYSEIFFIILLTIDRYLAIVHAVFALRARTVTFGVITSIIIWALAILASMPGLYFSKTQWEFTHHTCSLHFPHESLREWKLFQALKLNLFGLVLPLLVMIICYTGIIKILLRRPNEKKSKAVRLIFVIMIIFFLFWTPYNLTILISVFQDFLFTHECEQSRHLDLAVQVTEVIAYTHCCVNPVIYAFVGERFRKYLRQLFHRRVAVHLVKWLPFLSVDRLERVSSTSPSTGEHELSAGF

For a further test, the target named is RANTES(1-68) (human) (UniProt P13501).
Chain of RANTES(1-68) (human) (P13501 24-91 limits assumed): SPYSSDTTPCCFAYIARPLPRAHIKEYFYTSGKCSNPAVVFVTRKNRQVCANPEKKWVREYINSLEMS

Chain of RANTES(1-68) (P13501 24-91 limits assumed): as above
Chain of RANTES(3-68) (P13501 26-91 limits assumed): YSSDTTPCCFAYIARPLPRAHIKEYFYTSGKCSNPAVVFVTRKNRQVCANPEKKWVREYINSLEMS
Chain of CC chemokine receptor CCR5 (human) (P51681 whole entry): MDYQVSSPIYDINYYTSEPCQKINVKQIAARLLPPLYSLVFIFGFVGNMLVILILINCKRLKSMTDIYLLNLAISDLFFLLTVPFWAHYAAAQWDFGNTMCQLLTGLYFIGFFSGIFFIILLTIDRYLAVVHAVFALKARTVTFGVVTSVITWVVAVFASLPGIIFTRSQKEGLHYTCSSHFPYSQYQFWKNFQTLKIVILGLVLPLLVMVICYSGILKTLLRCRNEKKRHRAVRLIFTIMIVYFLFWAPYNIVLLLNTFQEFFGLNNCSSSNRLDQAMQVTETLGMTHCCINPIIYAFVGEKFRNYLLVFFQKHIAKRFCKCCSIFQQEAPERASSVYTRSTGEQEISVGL
Chain of soluble CD26 (sCD26) (P27487 39-766 limits assumed): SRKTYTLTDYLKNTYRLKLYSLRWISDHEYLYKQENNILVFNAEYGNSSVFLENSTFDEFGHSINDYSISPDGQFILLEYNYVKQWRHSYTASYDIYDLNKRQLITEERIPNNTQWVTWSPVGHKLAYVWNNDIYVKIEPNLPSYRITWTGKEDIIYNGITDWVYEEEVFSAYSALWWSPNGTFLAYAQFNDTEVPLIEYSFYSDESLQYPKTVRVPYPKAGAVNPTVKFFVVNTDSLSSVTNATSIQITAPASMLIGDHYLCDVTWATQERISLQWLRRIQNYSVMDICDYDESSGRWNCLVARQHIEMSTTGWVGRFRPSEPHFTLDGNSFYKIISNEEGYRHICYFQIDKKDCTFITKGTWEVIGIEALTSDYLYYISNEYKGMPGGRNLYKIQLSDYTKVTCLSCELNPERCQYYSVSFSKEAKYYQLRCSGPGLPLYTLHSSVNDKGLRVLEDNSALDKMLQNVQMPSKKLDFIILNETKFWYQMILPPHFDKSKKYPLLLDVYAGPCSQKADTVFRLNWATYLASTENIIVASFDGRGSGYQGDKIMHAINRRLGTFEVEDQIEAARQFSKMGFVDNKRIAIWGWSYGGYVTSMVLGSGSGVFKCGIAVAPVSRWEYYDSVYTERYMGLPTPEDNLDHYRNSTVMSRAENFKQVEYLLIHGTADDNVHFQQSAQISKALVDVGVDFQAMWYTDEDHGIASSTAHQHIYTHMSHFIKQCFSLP

In test [1], “RANTES(1-68) (from UniProt P13501 24-91) (ligand)” returned an IC50, inhibition of HIV-1 BaL replication in HOS.CD4.CCR5 cells (p24 Ag ELISA) of more than 130 nM; an IC50, inhibition of HIV-1 BaL replication in U87.CD4.CCR5 cells (p24 Ag ELISA) of 21 nM; an IC90, inhibition of HIV-1 BaL replication in HOS.CD4.CCR5 cells (p24 Ag ELISA) of more than 130 nM; an IC90, inhibition of HIV-1 BaL replication in U87.CD4.CCR5 cells (p24 Ag ELISA) of more than 130 nM. In test [1], this substance displayed an Increase in [Ca2+]i (nM) at 10 ng/ml, HOS cells transfected with CD4 and CCR5 of less than 15 nM; an Increase in [Ca2+]i (nM) at 30 ng/ml, HOS cells transfected with CD4 and CCR5 of 24 nM; an Increase in [Ca2+]i (nM) at 100 ng/ml, HOS cells transfected with CD4 and CCR5 of 60 nM; an Increase in [Ca2+]i (nM) at 300 ng/ml, HOS cells transfected with CD4 and CCR5 of 96 nM. Besides, in test [1], the inhibition of the [Ca2+]i rise by a subsequent challenge with intact RANTES (100 ng/ml) after pre-incubation of CCR5-transfected cells with a 3- to 10-fold excess worked out at 75%. Besides, the concentration sufficient to increase [Ca2+]i in HOS cells transfected with CCR3 in test [2] turned out to be 100 ng/mL. In test [3], this substance showed an Increase in [Ca2+]i (nM) at 10 ng/ml, HOS cells transfected with CD4 and CCR1 of less than 16 nM; an Increase in [Ca2+]i (nM) at 30 ng/ml, HOS cells transfected with CD4 and CCR1 of 25 nM; an Increase in [Ca2+]i (nM) at 100 ng/ml, HOS cells transfected with CD4 and CCR1 of 100 nM; an Increase in [Ca2+]i (nM) at 300 ng/ml, HOS cells transfected with CD4 and CCR1 of 133 nM.
In test [1], “RANTES(3-68) (from UniProt P13501 26-91) (ligand)” had an IC50, inhibition of HIV-1 BaL replication in HOS.CD4.CCR5 cells (p24 Ag ELISA) of 5.5 nM; an IC50, inhibition of HIV-1 BaL replication in U87.CD4.CCR5 cells (p24 Ag ELISA) of 0.65 nM; an IC90, inhibition of HIV-1 BaL replication in HOS.CD4.CCR5 cells (p24 Ag ELISA) of more than 130 nM; an IC90, inhibition of HIV-1 BaL replication in U87.CD4.CCR5 cells (p24 Ag ELISA) of 63 nM. Besides, in test [1], the Increase in [Ca2+]i (nM) at 10 ng/ml, HOS cells transfected with CD4 and CCR5 is less than 15 nM; the Increase in [Ca2+]i (nM) at 30 ng/ml, HOS cells transfected with CD4 and CCR5 amounted to 56 nM; the Increase in [Ca2+]i (nM) at 100 ng/ml, HOS cells transfected with CD4 and CCR5 stood at 76 nM; the Increase in [Ca2+]i (nM) at 300 ng/ml, HOS cells transfected with CD4 and CCR5 came out at 119 nM. In test [1], this substance had an inhibition of the [Ca2+]i rise by a subsequent challenge with intact RANTES (100 ng/ml) after pre-incubation of CCR5-transfected cells with a 3- to 10-fold excess of 75%. For the same substance, the concentration needed to increase [Ca2+]i in HOS cells transfected with CCR3 in test [2] was more than 300 ng/mL. In test [3], this substance displayed an Increase in [Ca2+]i (nM) at 30 ng/ml, HOS cells transfected with CD4 and CCR1 of less than 15 nM; an Increase in [Ca2+]i (nM) at 100 ng/ml, HOS cells transfected with CD4 and CCR1 of less than 15 nM; an Increase in [Ca2+]i (nM) at 300 ng/ml, HOS cells transfected with CD4 and CCR1 of 19 nM.
In the test with RANTES(1-68) (human), “soluble CD26 (sCD26) (from UniProt P27487 39-766) (enzyme)” displayed an IC50 of RANTES(1-68) against HIV-1 BaL in HOS.CD4.CCR5 cells when sCD26 at 50 U/l is added (p24 Ag ELISA) of 13 nM.
